Earlier results in PMC9569990 (International Journal of Molecular Sciences, 2022).

How the values were obtained:
[1] = biological target: RAGE V domain (Homo sapiens) (UniProt Q15109); conditions: cited from earlier work
[2] = biological target: S100P (Homo sapiens) (UniProt P25815); conditions: cited from earlier work
S100P (Homo sapiens), sequence (P25815 whole entry): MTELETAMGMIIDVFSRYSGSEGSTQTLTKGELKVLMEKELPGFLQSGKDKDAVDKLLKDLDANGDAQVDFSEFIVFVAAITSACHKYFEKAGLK

S100P, sequence (P25815 whole entry): as above
RAGE V domain (Homo sapiens), sequence (Q15109 23-116): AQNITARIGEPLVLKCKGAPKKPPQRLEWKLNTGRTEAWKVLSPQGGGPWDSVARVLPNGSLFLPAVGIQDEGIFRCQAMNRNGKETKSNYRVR

S100P (from UniProt P25815)
Kd [1]: 6 µM
Kd [2]: 0.064 µM
